# From the nanobody polyreactivity screen of Harvey et al. (2022)
# Test: yeast display, Sf9 membrane polyspecificity reagent, FACS + sequencing; frameworks hold sequencing errors
# Summary of the method: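 Galactose induction of a Saccharomyces cerevisiae BJ5465 synthetic nanobody display library ran 36–48 hours. The cells were then stained for 1 hour at 4 °C with 10% biotinylated, detergent-solubilized Sf9 membrane reagent, pulled down on streptavidin microbeads and FACS-sorted into low and high (top ~1%) gates on expression and reagent-binding fluorescence. Labels for polyreactivity follow the gate of origin.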
row,Sequence,polyreactivity (PSR sort gate)
1,QVQLQESVGGLVLAGGSLRLICSASANISVYGTMGWYRKAPGKEREFVATIDPGTNTNYADSVKDRFTISRDNAKNTVYLQMNSLKPEDTAVYYCEVEGGSDWPYRYWGQGTQVTVSS,low polyreactivity
2,QVQLQESVGGLVQAGGSLRLSCAASGSIFKVVDMGLYRQAPAKEREFVATIGEGGNTYYADSVKGRFTISRDNAKNTVYLQMNSLKPEDTAVYFYAVVLGTSYRYTYWGQGTLVTVSS,low polyreactivity
3,QVQLQESVGGLVQAGGSLRLSCAASGTISPQPAMGWYRPAPGKEREFVAGIDTGAITNYADSVKGRFTISRDNAKNTVYLQMNSLKPEDTAVYYCAVFPAAYDYYERYYTYWGLGTQVTVSS,low polyreactivity
4,QVQLQGSGGGLVQAAGSLRLSCAASGYIFQNVPMGWNRQAPGKERELVAGIDNGTSTNYADSVNGRFTISRDNAKKTVYLQMNSLKPEDTAVYYCAAAGQADDTLGYWGQGTQVTVSR,low polyreactivity
5,QVQLQGSGGGLVQAGGSLRLSCAASGNIFDADIKGWYRQAPGKEIELVASITDGGSTNYADSVKGRFTISRDNAKNTVYLQMYSLKHEDTAVYYCAAIAYPDIPTYFDYDSDCFYWSQGTQVTVSS,high polyreactivity
6,QVQLQGSGGGLVQAGGSLRMSCAASAYIFQNVPKGLNRKEPGKERELVAGIDNGTSTNYADSVNGRFTISRDNAKNSVYLEMKSLKPVDTAVYYCAAAGQADDTLGYWGQGTQVTVSS,low polyreactivity
7,QVQLQGSGGGLVQAGGSLRQSCAASGYIFQNVPMGWNRQAPGKERELVAGIDNGTSTNYADSVNGRFTISRDNAKNTVYLQMNSLKPEDTAVYYCAAAGQADDTLGYWGQGTQVTVSS,low polyreactivity
8,QVQLQVSGGDLLQAGGSLRLSCAASGTIYGHTSMGWYRQAPGKEREFVAAITDGGNTNYADSVKGRFTISRDNAINTVYLQMISLKPEDTAVYYCEVLFSDVAYYAYWGQGTQVTVSS,low polyreactivity
9,QVQLQVSGGGLVQAGGSLRLNSAASGAIFLTSEMGWYRQAPGKERELVAAIATGTSTNYADSVKGLFTISRDNAKNTVYLQMNSLKPEDTAVYYCATYHYWGQGTQVTVSS,low polyreactivity
10,QVQLRESGGGLVQAGGSLSLSCAASGTIFYSRYMGWYRQAPGKEREFVASISSGGNTNYADSVKGRFTISRDNAKNTVYLQMNSLKPEDTAVYYCAVNTGLITTCPYWGQGTQVTVSS,high polyreactivity
11,QVQLVAGGGLVQAGGSLRLSCAASGSIFYSNAMGWYRQAPGKERELVAAISFSGGSTYYADSVKGRFTISRDNAKNTVYLQMNSLKPEDTAVYYCAAEFYKRKFGPFEYWGQGTQVTVSS,low polyreactivity
12,QVQLVASGGALVQAGGSLRLSCAASGFIFDYYAMGRYRPAPGKERELVAAITSRSGSTYYADSVKGRFTISRDNAKNTVYLQMNSLKPEDTAVYYCARRFKYGSTAWRFYYWGQGTQVTVSS,high polyreactivity
13,QVQLVASGGGLVQAGGSLRISSAASGGIFPQYAMGWYRQAPGKERELVAAISRRGGSTYYADSVKGRFTISRDNAKNTVYLQMNSLKPEDTAVYFCNAGGSDYGVSNKYNSWGQGTQVTVSS,high polyreactivity
14,QVQLVASGGGLVQAGGSLRLSCAASGRTSWYYAMGWYRHAPGKERELVAAITASGGSTYADSVKGRFTISRDNAKNTVYLQMNSLKPEDTAVYYCAAERPYSRVGYYYWGQGTQVTVSS,high polyreactivity
15,QVQLVASGGGLVQAGGSLRLSCAATGNTLGYYDMGWYRQAPGKERELVAGITFRGGRTYYADSVKGRFTISRDNPKNTVYLQMKSLKPEDTAVYYCAKRTRYSPGHDYWGLGTQVTVSS,high polyreactivity
16,QVQLVASGGGLVQAGGSLRLSSAASGFTFYGYAMGWYSQARGKERELVATIRRSTGSTYYADSVKGRFTISRDNAKNTVYLQINSLIPEDTAVYYCATRVWFPITSYDYWGQGTQVTVSS,low polyreactivity
17,QVQLVASGGGLVQAGGSVRLSCAASGFIVNYYAMGWYRQAPGKEGELLAAISSGGSTYYADSVKGRFTISRDNAKNTVYLQMNSLKPEDTAVYYCAARYTDLRLARYYYDYYYWGQGTQVTVSS,high polyreactivity
18,QVQLVASGGGLVQARGSLRLSCAASGRTFTYYAMGWYRQAPGKESELVAAISDSGGSTYYADSVKGRFTISRDNAKNTVYVQMNSLKPEDTAVYYCAAYRYVGPWTDVGSPDYDDWGQGTQVTVSS,low polyreactivity
19,QVQLVASGGGLVQSGGSLRLSCAASGSTITWYAMGWYRQAPGKDRELVARISSGDRPNYADSVKGRFTISRDNAKNTVYLQMNSLKPEDTAVYYCNADYGQPSYYDDGDYWGQGTQVTVSS,low polyreactivity
20,QVQLVDSAGGLVHAGGSLRLSCAASGLTFYSNTMGWYRPPPGKERELVAGISWGGDTTYYADSVKGRFTISRDNAKNTVYLQMNSLKPEDTAVYYCAADRSYWRHRYSYDYWGQGTQVTVSS,low polyreactivity
21,QVQLVDSAGGLVQAGGSLRLSCAASGITFGYYAMGWYRQAPGKERELVAAITSSGSTYYADSVKGRFTISRDNAKNTVYLQMNSLNPEDTAVYYCAARSWYSKYYYWGQGTQVTVSS,high polyreactivity
22,QVQLVDSAGGLVQAGGSLRLSCAASGLNYAIYAMGWYREAPGKERELVAAIRWSGASTYADSVKGRFTISRDNAKNTVYLQMNSLKPEDTAVYYCAADDLLDYDYWGQGTQVTVSS,low polyreactivity

row,Sequence,polyreactivity (PSR sort gate)
1,QVQLVDSAGGLVQAGGSLRLSCAASGRTYVVNTRGWSRQAPGKERELVASISSGTTNYADSVKGRFTISRDNAKNTVYLQMNSLKPVDTAVYYCNTDGGDHPTARYGYWGQGTQVTVSS,high polyreactivity
2,QVQLVDSGAGLVQAGGSLRIICAASVRTFPRNAMGWYRQAPGKEMEMVAAITGSGGSTYYADSVKGRFTISRDNAKNTVYLQMNSLKPEDTAVYYCAARGPSRRRDGSDYWGQGTQVTVSS,high polyreactivity
3,QVQLVDSGAGLVQAGGSLSLTCAASGYTFYANAMGWYRQAPGKERELVAGINRSGSTYYADSVKGRFTISRDNAKNTVYLQMNSLKPEDTAVYYCATAWHRGVRGRTSGAFDYWGQGTQVTVSS,high polyreactivity
4,QVQLVDSGGCLVQAGRSLRLSCAASGSIYVPNAMGWYRQAPRKERDLVAGISRGGSTNYADSVKGRFTISRDNAKNSVYLQMKRLKPEDTAVYYCARDSRTIRYYAWFYPFRYDYWGQGTQVTVSS,low polyreactivity
5,QVQLVDSGGGIVQAGGSLRLSCAASGRIFKLYAMGRYRQAPGKERELVAAISKSGGNTYADSVKGRFTISRDNAKNSVYLQMNSLKPEDTAVYYCAATVQSTSDPFDYWGQGTQVTVSS,low polyreactivity
6,QVQLVDSGGGLDQAGGSLRLSCSASGIIFRGNAMGWYRQAPGKEREFVAAIALRGSRSYYADSVKGRFTISRDNAKNTVYLQMISLKPEDTAVYYCAARYYSEPNAYYYWGQGTQLTVSS,high polyreactivity
7,QVQLVDSGGGLVHAGGSLRLSCAASGSIFGANTMGWYRPAPGKERELVAGITSRARTYYADSVKGRFTISRDNANNNVYLQMNSLKPEDTAVYYCAAKYAWRRYGYWGQGTQVTVSS,high polyreactivity
8,QVQLVDSGGGLVHAGGSLRLSCAASGSSFTFYAMGWYRQAPGKERELVARISITGGSTYYADSVKGRFTISRDNAKNTVYLHMNSLKPEDTAVYYCAARYYGEHYDYWGQGTQVTVSS,low polyreactivity
9,QVQLVDSGGGLVHAGGSLRLSCASSGSIFNYYAMGCYRQPPGKVRELVAAISYRTGSTYYADSVKGRFTISRDNAKNTVYLQMTSLKPEDTSVYYCAADTRYGYGYWGQGTQVTVSS,high polyreactivity
10,QVQLVDSGGGLVHAGGSLRLSCHASGRTFRGNAMGWYRQAPGKESELVAAITRRTASTYYADSVKGRFTISRDNAKNTVYLQMNSLKPEDTAVYDCAADSYMKRPYYAGYYYWGQGTQVTVSS,high polyreactivity
11,QVQLVDSGGGLVKAGCSLRLSCAASGRIFNSYAMGLYRQAPGKETELVAAITWSGDRTNYADSVKGRFTISRDNANNTVYVQMNSLKPEDTAVYYCAADRVRSVRYGYWGKGTQVTVSS,low polyreactivity
12,QVQLVDSGGGLVKAGGSLRLSCAASGSTFAYYAMGWYRQAPGKERELVAAISWNGGSTYYADSVKGRFTISRDNAKNTVYLQMNSLKPEDTAVYYCAAEVYDYTYVVTFLYDYWGQGTQVTVSS,high polyreactivity
13,QVQLVDSGGGLVQAGCSLRISCAASGSIYTTYAMGWYRQAPGKERELVAALTRSGGRTYYADSVKGRFTISRDNAKYTVYLQMTSLKPEDTAVDDCNAYGYRTWWDDFKLDYWGQGTQVTVSS,high polyreactivity
14,QVQLVDSGGGLVQAGGRLRLTCAASGSTFGPNAMGWYSPAPGKERELVADISGGSTNYADSVKGRFTISRDNAKNTVYLQMKSLKPEDTAVYSCATDDHVEPVRRLYGYWGQGTQVTVSS,low polyreactivity
15,QVQLVDSGGGLVQAGGSHRLSCAASGIIFPTYDMGWYRPAPGKERELVAAITWSTGSTTYADSVKGRFTISRDNAKNTVYLQMNSLKPEDTAVYYCNKDSEGSGGEFDDWGQGTQVTVSS,low polyreactivity
16,QVQLVDSGGGLVQAGGSLGLSCAASGRSFTFNAMGWYRQAPGKERELVAAISSRGDGTYYADSVKGRFTISRDNAKNNVYLQMNSLKPEDTAVYYCARYPDDYYDWGYDYWGQGTQVTVSS,low polyreactivity
17,QVQLVDSGGGLVQAGGSLRFSCAASGSIFPVNVMGWYRQAPGKERELVADITSTGTYYADSVKGRFTISRDNAKNTDYLQMNSLKPEDTAVYYCAKAGGSWYRRYYYWGQGTQVTVSS,high polyreactivity
18,QVQLVDSGGGLVQAGGSLRISCAASGFIFSSYAMGWSRQAPAKERELVAAISSRGGSTYYADSVKGRFTISRDNAKNTVYLQMNSLKPEDTAVYYCNAYLSPYVQTSRYDDDYWGQGTQVTVSS,high polyreactivity
19,QVQLVDSGGGLVQAGGSLRISCAASGSIFPSNAMGWYRQAPGKERELVAAINRDGITNYADSVKGRFTISRDNAKNTVYLQMNSLKPEDTAVYYCAAEFAGQWWEYGYWGQGTQVTESS,low polyreactivity
20,QVQLVDSGGGLVQAGGSLRITCAASGFTFTRYALGGYRQAPGKERELVAVITSTAGSTYYADSVKGRFTISRDNAKNSVYLQMNSLKAEVTAVYFCAAESLVHGDVTLEEVVAQSYDYWGQGSQVTVSS,low polyreactivity
21,QVQLVDSGGGLVQAGGSLRLICAASGRNLYAYSMGWYRQAPWQQRELVGAITSGASTYYADSVKGRFTISRDNAKTNVYLQMKRLKPEDTAVYYCAKSVRYYKPGYDYWGQGTQVTVSS,low polyreactivity
